Experimental findings from article PMC8294330 are described below.

The target of data set [1] is PNPase S1x4;Hfq R681A;Q682A;R684A;R686A (Escherichia coli;Escherichia coli) (UniProt P05055+P0A6X3). Nature of the data set: EMSA. To be noted: EMSA: 0.4 uM RNA, PNPase trimer 1:1 and 3:1 over RNA, 20 mM Tris pH 7.5, 100 mM NaCl, 1 mM MgCl2, 1 mM DTT, 30 C 20 min; native PAA gel with 10% glycerol ….
Data set [2] concerns the target PNPase WT;Hfq (Escherichia coli;Escherichia coli) (UniProt P05055+P0A6X3). In words: cryo-EM. To be noted: EMSA: 0.4 uM RNA, PNPase trimer 1:1 and 3:1 over RNA, 20 mM Tris pH 7.5, 100 mM NaCl, 1 mM MgCl2, 1 mM DTT, 30 C 20 min; native PAA gel with 10% glycerol …. (In general: In EMSA bound probe runs differently from free probe, usually more slowly.)

In the case of “GCGAUCAGGAAGACCCUCGCGGAGAACCUGAAAGCACGACAUUGCUCACAUUGCUUCCAGUAUUACUUAGCCAGCCGGGUGCUGGCUUUUUUUUU [RyhB]”, the results for the binding entry in data set [1] and in data set [2] were “no binding” and “binds”, respectively.
